Results: PMC10144703, “Molecular Mechanism of Sirtuin 1 Inhibition by Human Immunodeficiency Virus 1 Tat Protein” (Life, 2023)

Key:
[1] = tested on: mini-Sirt1-∆SBD (aa 214-505-(GGGS)2-641-665); assay: Inhibition of mini-Sirt1-∆SBD (ac-p53 substrate); type: biochemical, human; conditions: dose-dependent, 100 µM ac-p53, n = 3; relative to mini-Sirt1
Text: (§1) A human mini-Sirt1 construct (aa 183-505-(GGGS)2-641-665), as described in [27], was generated in a modified pET-19b with a TEV cleavage site. This construct and human full-length Sirt1 (fl-Sirt1) in pET-15b, Sirt1-(183-664) and Sirt1-(214-664) in pET-15b, mini-Sirt1-∆SBD (aa 214-505-(GGGS)2-641-665) and mini-Sirt1-∆ESA (aa 183–505) in a modified pET-19b with TEV cleavage site, Sirt2-(43-356) in a modified pET-19b with a His6-Sumo tag, Sirt3-(93-399) in a modified pET-32a with Trx-His6 tag and TEV cleavage site, hSirt3-(118-399) in pVFT3S (Sungkyunkwan University, Seoul, Republic of Korea) with His6-Trx tag and TEV cleavage site, Sirt5-(34-302) in pET-151/D-TOPO, and Sirt6-(1-355) in pQE80L.1 were purified as described. […]
(§2) Continuous coupled enzymatic sirtuin activity assays were conducted as described. […] Reactions were monitored for 1 h at room temperature by absorption spectroscopy at 340 nm in a UV/vis plate reader (BioTek). The slope for the linear range (typically 5–25 min) was evaluated after background correction with measurements without NAD^+. Additional control reactions were run by either omitting enzyme or omitting peptide substrate to ensure that the signal measured reflects the NAD+-dependent deacetylation activity of the sirtuin.

Sirt3-(93-399) = molecular target: T1, Sirt3-(93-399) (Homo sapiens, UniProt Q9NTG7); assay: FdL assay, Sirt3; type: biochemical; conditions: increasing Tat-Cys^−, n = 3-6
T1 construct: Sirt3-(93-399) in a modified pET-32a; Trx-His6 (cleaved yes); made in house; host or cells: E. coli CodonPlus(DE3)
T1 sequence (Q9NTG7 93-399): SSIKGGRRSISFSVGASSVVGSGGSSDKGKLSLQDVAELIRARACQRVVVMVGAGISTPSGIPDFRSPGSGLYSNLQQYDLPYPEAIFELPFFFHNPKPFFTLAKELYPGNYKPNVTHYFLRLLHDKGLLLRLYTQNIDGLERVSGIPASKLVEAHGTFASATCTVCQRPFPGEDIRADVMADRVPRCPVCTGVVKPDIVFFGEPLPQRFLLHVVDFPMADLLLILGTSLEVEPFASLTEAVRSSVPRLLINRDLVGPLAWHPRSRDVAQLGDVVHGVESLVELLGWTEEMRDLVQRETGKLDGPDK
Text: A human mini-Sirt1 construct (aa 183-505-(GGGS)2-641-665), as described in [27], was generated in a modified pET-19b with a TEV cleavage site. This construct and human full-length Sirt1 (fl-Sirt1) in pET-15b, Sirt1-(183-664) and Sirt1-(214-664) in pET-15b, mini-Sirt1-∆SBD (aa 214-505-(GGGS)2-641-665) and mini-Sirt1-∆ESA (aa 183–505) in a modified pET-19b with TEV cleavage site, Sirt2-(43-356) in a modified pET-19b with a His6-Sumo tag, Sirt3-(93-399) in a modified pET-32a with Trx-His6 tag and TEV cleavage site, hSirt3-(118-399) in pVFT3S (Sungkyunkwan University, Seoul, Republic of Korea) with His6-Trx tag and TEV cleavage site, Sirt5-(34-302) in pET-151/D-TOPO, and Sirt6-(1-355) in pQE80L.1 were purified as described. Shortly, proteins were expressed at 20 °C (mini-Sirt1 constructs at 16 °C) in E. coli CodonPlus(DE3), cell lysates were cleared by centrifugation, and proteins were purified via affinity chromatography using a nickel NTA column. After digestion with thrombin or TEV protease, proteins were re-run over the nickel NTA column, pooled, and concentrated. The samples were, then, subjected either directly to size exclusion chromatography in 50 mM Tris/HCl, pH 8.0, 150 mM NaCl, 1 mM TCEP, or to an ion exchange chromatography followed by size exclusion chromatography. […]

human Sirt2 = molecular target: T2, human Sirt2 (Homo sapiens, UniProt Q8IXJ6); assay: Continuous coupled enzymatic assay, Sirt2; type: biochemical; conditions: 65 μM Tat-Cys^−, acetylated peptide at substrate Km, n = 3
T2 construct: Sirt2-(43-356) in a modified pET-19b; His6-Sumo; made in house; host or cells: E. coli CodonPlus(DE3)
T2 sequence (Q8IXJ6 43-356): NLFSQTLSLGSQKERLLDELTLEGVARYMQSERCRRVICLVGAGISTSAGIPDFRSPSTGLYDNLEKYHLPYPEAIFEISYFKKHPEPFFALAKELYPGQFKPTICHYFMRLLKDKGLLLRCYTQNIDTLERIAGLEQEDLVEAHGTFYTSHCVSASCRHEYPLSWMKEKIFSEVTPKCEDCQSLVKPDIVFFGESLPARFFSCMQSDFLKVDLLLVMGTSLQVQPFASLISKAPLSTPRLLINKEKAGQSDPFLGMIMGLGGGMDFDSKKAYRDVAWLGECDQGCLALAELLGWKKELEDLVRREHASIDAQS
Text: as §1, §2

human Sirt3 = molecular target: T3, human Sirt3 (Homo sapiens, UniProt Q9NTG7); assay: Continuous coupled enzymatic assay, Sirt3; type: biochemical; conditions: 65 μM Tat-Cys^−, acetylated peptide at substrate Km, n = 3
T3 construct: Sirt3-(93-399) in a modified pET-32a; Trx-His6 (cleaved yes); made in house; host or cells: E. coli CodonPlus(DE3)
T3 sequence (Q9NTG7 93-399): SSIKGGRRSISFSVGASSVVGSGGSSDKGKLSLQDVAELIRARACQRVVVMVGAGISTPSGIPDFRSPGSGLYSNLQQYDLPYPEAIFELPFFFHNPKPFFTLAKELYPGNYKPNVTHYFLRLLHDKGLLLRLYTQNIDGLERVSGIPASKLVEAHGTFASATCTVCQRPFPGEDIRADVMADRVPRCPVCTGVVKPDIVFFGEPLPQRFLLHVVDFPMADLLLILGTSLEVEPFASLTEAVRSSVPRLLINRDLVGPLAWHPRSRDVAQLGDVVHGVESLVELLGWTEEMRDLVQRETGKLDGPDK
Text: as §1, §2

human Sirt5 = molecular target: T4, human Sirt5 (Homo sapiens, UniProt Q9NXA8); assay: Continuous coupled enzymatic assay, Sirt5; type: biochemical; conditions: 65 μM Tat-Cys^−, succinylated peptide at substrate Km, n = 3
T4 construct: Sirt5-(34-302) in pET-151/D-TOPO; made in house; host or cells: E. coli CodonPlus(DE3)
T4 sequence (Q9NXA8 34-302): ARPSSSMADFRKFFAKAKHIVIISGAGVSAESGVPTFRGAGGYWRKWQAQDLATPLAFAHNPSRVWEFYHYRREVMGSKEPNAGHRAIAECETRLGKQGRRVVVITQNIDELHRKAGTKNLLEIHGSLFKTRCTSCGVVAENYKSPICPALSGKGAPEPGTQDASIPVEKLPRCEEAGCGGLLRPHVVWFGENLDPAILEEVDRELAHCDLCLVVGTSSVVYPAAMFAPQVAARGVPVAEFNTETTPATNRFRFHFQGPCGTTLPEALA
Text: as §1, §2

B1: Tat-Cys^−: Recombinant 86-residue HIV1 Zaire 2 Tat with C22S, C25A, C27A, C30S, C31A, C34S, and C37A (protein)
chain: MDPVDPNIEPWNHPGSQPKTASNRAHAKKSAYHSQVAFITKGLGISYGRKKRRQRRRPSQGGQTHQDPIPKQPSSQPRGDPTGPKE
inhibitory effects, mini-Sirt1-∆SBD [1]: unchanged inhibitory effects | inhibition mode vs acetylated substrate peptide, Sirt3 (Sirt3-(93-399); FdL-1, Sirt3-(93-399)): competitive with the acetylated substrate peptide | inhibition mode vs NAD^+, Sirt3 (Sirt3-(93-399); NAD^+ titration, Sirt3-(93-399)): non-competitive with NAD^+ | inhibitory effect on Sirt2, continuous assay (human Sirt2): pronounced inhibitory effects | inhibitory effect on Sirt3, continuous assay (human Sirt3): pronounced inhibitory effects | inhibitory effect on Sirt5, continuous assay (human Sirt5): no statistically significant effect was observed
